Reference: US20240002514A1

Target: human PD-L1 expressed on the cell surface (CHO cells expressing human PD-L1; Promega CS187103 / 187103 cells) (human) (UniProt Q9NZQ7)
Sequence (Q9NZQ7 19-290): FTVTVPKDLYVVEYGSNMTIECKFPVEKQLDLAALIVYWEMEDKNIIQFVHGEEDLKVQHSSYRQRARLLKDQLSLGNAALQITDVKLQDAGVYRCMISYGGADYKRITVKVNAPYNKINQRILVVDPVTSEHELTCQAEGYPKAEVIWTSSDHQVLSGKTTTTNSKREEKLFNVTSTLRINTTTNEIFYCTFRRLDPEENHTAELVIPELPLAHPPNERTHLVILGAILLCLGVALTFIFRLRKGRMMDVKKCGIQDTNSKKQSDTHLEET

- EC50, PD-1/PD-L1 blockade (% PDL1 Blockade, NFAT-luciferase reporter): 0.17 nM
B1: 29E.2A3 (antibody, from another filing, V domains shown)
VH: EVQLQQSGPELVKPGASVKMSCKASGYTFTSYVMHWVKQKPGQGLEWIGYVNPFNDGTKYNEMFKGKATLTSDKSSSTAYMELSSLTSEDSAVYYCARQAWGYPWGQGTLVTVSA
VL: DIVLTQSPASLAVSLGQRATISCRATESVEYYGTSLVQWYQQKPGQPPKLLIYAASSVDSGVPARFSGSGSGTDFSLTIHPVEEDDIAMYFCQQSRRVPYTFGGGTKLEIK
